Experimental findings from article PMC5428041, “Dynamic equilibrium on DNA defines transcriptional regulation of a multidrug binding transcriptional repressor, LmrR” are described below.

What is called Kd is a measure of binding affinity in units of concentration.

The data set addresses T1, LmrR (Lactococcus lactis, UniProt A2RI36 1-116).
T1 sequence: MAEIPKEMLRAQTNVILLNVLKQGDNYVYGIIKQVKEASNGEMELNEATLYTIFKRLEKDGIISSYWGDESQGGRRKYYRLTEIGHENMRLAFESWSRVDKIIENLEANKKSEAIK
The data set can be described thus: ITC; apo; 2 LmrR dimers per DNA; 10 mM NaPi pH 6.8, 100 mM NaCl, 25 C (ITC; same buffer for NMR); 5% DMSO in riboflavin titrations. Particulars: protein: recombinant; tags: C-terminal His6; chain copies: 4. Background: Isothermal titration calorimetry measures the heat released or taken up as one component is titrated into another.

B1: lmrCD operator 33 bp (dsDNA)
DNA 1: CAATTTAATGTAAAGTAGTTTACATTATTTAAC
DNA 2: GTTAAATAATGTAAACTACTTTACATTAAATTG
As to B1, the Kd was determined as 64 ± 22 nM.
